Source: patent EP4431529A1 (Sunshine Guojian Pharmaceutical (Shanghai) Co., Ltd., dated 2024)

Legend:
[1] = molecular target: T1, IL-17A protein (human, UniProt Q16552 24-155); assay: cell-based or functional assay
T1 sequence (looked up): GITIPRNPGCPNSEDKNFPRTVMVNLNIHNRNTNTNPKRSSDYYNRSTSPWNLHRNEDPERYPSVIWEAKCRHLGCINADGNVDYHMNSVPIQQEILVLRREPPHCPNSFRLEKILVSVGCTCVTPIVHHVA

[2] = molecular target: T1, IL-17A protein; assay: ELISA, IL-17A coated on the plate
[3] = molecular target: T1, IL-17A protein; assay: SPR, Biacore 8K, antibody captured on Protein A, IL-17A as analyte
[4] = molecular target: T2, VEGF165 (UniProt P15692-4 27-191); assay: ELISA, VEGF coated on the plate
T2 construct: treated as one molecule; also called VEGF protein; VGEF
T2 sequence (P15692 other isoform, or with tags, fused parts or gaps limits assumed): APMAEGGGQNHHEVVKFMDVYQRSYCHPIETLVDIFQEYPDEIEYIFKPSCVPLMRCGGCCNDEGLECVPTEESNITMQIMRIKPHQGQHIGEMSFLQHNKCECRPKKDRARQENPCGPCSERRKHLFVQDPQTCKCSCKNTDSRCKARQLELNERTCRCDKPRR

IC50 of blocking IL-17A-induced IL-6 secretion from HeLa cells [1]: 0.877 nM
EC50 [2]: 0.052 nM
Kd [3]: 0.0164 nM
koff [3]: 4e-05 s⁻¹
kon [3]: 2.44e+06 M⁻¹ s⁻¹
B1: anti-IL-17 monoclonal antibody 608 (antibody, human IgG1, kappa, V domains shown)
VH: EVQLVESGGGLVQPGGSLRLSCAASGFTFSSFDMSWGRQAPGKRLEWVAFMSSGGSTYYPDSVKGRFTISRDNSKNTLYLQMNSLRAEDTAVYYCARGERYGSYWGQGTLVTVSS
VL: DIQMTQSPSSLSASVGDRVTITCKASDHINNWLAWYQQKPGKAPKLLISGATSLETGVPSRFSGSGSGTDYTLTISSLQPEDFATYYCQQYWSTPFTFGSGTKLEIKR
notes: Humanized anti-human IL-17A monoclonal antibody from CN 201780033670.5; positive control
binding result [4]: no binding (tested: 25 nM (highest concentration tested))
